# According to PMC9092470, “Understanding p300-transcription factor interactions using sequence variation and hybridization†” (RSC Chemical Biology, 2022):
# “And” between values parts separate entries of the source, which are not always exact repeats. Equal entries are not always repeated.
# Experiments:
# p300 CH1 (Homo sapiens) = p300 CH1 (Homo sapiens) (UniProt Q09472); experiment: anisotropy; settings: cited from earlier work
# [1] = target: T1, p300 (CH1 domain, residues 330–420) (Homo sapiens, UniProt Q09472); experiment: ITC of chemically synthesized HIF-1α, CITED2 and CITIF peptides binding to p300; settings: ITC, 35 °C, 40 mM sodium phosphate, pH 7.5, 100 mM NaCl, 1 mM DTT, 5 μM protein in cell, 60 μM ligand in syringe
# T1 construct: GST (N, cleaved yes); made in house; host or cells: E. coli BL21 pLysS (pGEX-4T1-p300)
# Protocol: Raw ITC (upper) data and fitted thermogram (lower) (40 mM sodium phosphate, pH 7.5 100 mM NaCl, 1 mM DTT buffer using 5 μM protein in the cell and 60 μM ligand in the syringe at 35 °C) error bars represent the estimated integration errors; (b) Thermodynamic signatures for each interaction.
# Figure S8 (a) Sequences of the truncated CITED2 peptides and isothermal titration […]
# µM peptide in the syringe. All measurements were carried out 40 mM sodium phosphate, pH 7.5 100 mM NaCl, 1 mM DTT buffer at 35°C. Error bars represent the estimated integration […]
# Table S2 Thermodynamic parameters for shortened CITED2 sequences. 68% confidence intervals for the fitting are shown in brackets. Data fitted to a single binding site model, fixed 1:1 stoichiometry with incompetent protein fraction as an adjustable parameter. […]
# (§1) Isothermal titration calorimetry
# (§2) Prior to ITC measurement p300 CH1 was dialysed or run on S75 column in the buffer used for titration, and the same buffer was used to dissolve the pure peptides. Experiments with […]
# (§3) MicroCal iTC200 instrument with 10 µM protein in the cell and 100 µM ligand in the syringe at 37°C, using 2 µl injections and 120 or 180 s spacing between injections. Experiments with the […]
# (§4) instrument using 3-5 µM protein in the cell and 40-60 µM ligand in the syringe at 35°C, using 5 µl injections and 180 s spacing between injections, for 40 injections. Titrations were performed in 40 mM Na-phosphate, pH 7.5 100 mM NaCl, 1 mM DTT buffer except for GFP-HIF-1α and variants for which 25 mM Tris-HCl, 150 mM NaCl, 1mM DTT, pH 7.4 buffer was used. Data were analysed using NITPIC3 and fitted using SEDPHAT4 to a single binding site model (fixed 1:1 stoichiometry), with baseline and incompetent protein fraction as adjustable parameters. 68 % confidence intervals for the fitted values were determined using the automatic confidence interval search implemented in SEDPHAT. Figures were prepared using […]
# p300 = target: T2, p300 (Homo sapiens, UniProt Q09472); experiment: Global fitting of ITC titrations with ternary complex model: binary binding parameters
# T2 construct: GST (N, cleaved yes); made in house; host or cells: E. coli BL21 pLysS (pGEX-4T1-p300)
# Source text: To gain more insight into the mechanism by which the different CITED2 sequences displace HIF-1α from the preformed HIF-1α/p300 complex, we performed global fitting[69] of the competition data using a model that permits ternary complex formation depicted in Fig. 5e (fitted thermograms are shown on Fig. S9 (ESI ^†), for detailed analysis see Fig. S18 and ESI ^† eqn (S5)–(S20)). The reported cooperativity constant (α), the derived ΔΔG and ΔΔH represent the additional Gibbs energy and additional contribution to the enthalpy due to cooperative interactions and indicate whether the ternary complex formation is favourable (negative ΔΔG) or unfavourable (positive ΔΔG).[70,71]
# Thus the enthalpy change for equilibrium III. (CITED2 binding to HIF-1 α /p300 complex can
# ∆𝐻𝑇,𝐶𝐼𝑇 = ∆𝐻𝐶𝐼𝑇 + ∆∆𝐻 𝐸𝑞. 19.
# And the enthalpy for equilibrium IV. HIF-1 α binding to CITED2/p300 complex can be given by:
# ∆𝐻𝑇,𝐻𝐼𝐹 = ∆𝐻𝐻𝐼𝐹 + ∆∆𝐻 𝐸𝑞. 20.
# Fitting in SEDPHAT was parametrized as follows: HIF-1α776-826 titrated to p300 (B to
# ΔH B, logK[AB]C/KAC and ΔΔH (corresponding to KHIF, ΔH HIF, KCITED, ΔH CITED, cooperativity
# constant α and ΔΔH) were fitted using A+B+C <-> AB + C <-> AC + B <-> ABC triple complex
# model. Incompetent fraction for p300 and baseline was fitted locally for each experiment. 68
# [2] = target: T3, CITED2216-259 /p300 complex (Homo sapiens, UniProt Q09472); experiment: Competition ITC: HIF-1α776-826 titrated to preformed CITED2216-259/p300 complex; type: binding; settings: titrated to CITED2216-259/p300 complex
# T3 construct: GST (N, cleaved yes); made in house; host or cells: p300: E. coli BL21 pLysS (pGEX-4T1-p300); CITED2 peptide: chemical synthesis
# Protocol: Figure S7Apparent KD fits for the competition ITC experiment using a competition interaction model. p300/ligand complexes were prepared by titrating the appropriate ligand first to p300 in the cell using 3-5 µM protein concentration, the titration stopped when it reached close to […]
# (Table S5) Then it was titrated with the competitor ligand using 30-60 µM concentration in the syringe, 5 or 10 uL injections with 180-240 s spacing. Background titrations were performed without p300 in the cell and subtracted from the measurements. Apparent KD,app and ΔH app values data were fitted to a competition model (Fig. S17) in SEDPHAT. Error bars represent the estimated integration errors.
# (1 picture or pasted object on this page, not shown here)
# Table S1 Apparent KD values and thermodynamic parameters for competition ITC experiments derived from fitting the data to a competition model depicted in Fig. S17. confidence intervals of the binding parameters are shown in brackets. […]
# as §1
# Prior to ITC measurement p300 CH1 was dialysed or run on S75 column in the buffer used for titration, and the same buffer was used to dissolve the pure peptides. […]
# 37°C, using 2 µl injections and 120 or 180 s spacing between injections. Experiments with the […]
# as §4
# Competition ITC measurements
# Competition ITC measurements were performed in Microcal VP ITC. […]
# [3] = target: T1, p300 (CH1 domain, residues 330–420); experiment: ITC of expressed HIF-1α, CITED2 and CITIF peptides binding to p300; settings: ITC, expressed peptides, conditions as Fig. S6 (40 mM sodium phosphate, pH 7.5, 100 mM NaCl, 1 mM DTT, 35°C)
# Protocol: We hypothesized that it would be possible to enhance the affinity of HIF-1α for p300 by hybridising key regions of both CITED2 and HIF-1α (see later). We first measured the affinity of the parent peptides. A particular difficulty in comparing these peptide sequences is the different length used in different studies.[28,33,35,36] […]
# data and fitted thermogram (lower) (40 mM sodium phosphate, pH 7.5 100 mM NaCl, 1 mM DTT buffer using 5 µM protein in the cell and 60 µM ligand in the syringe at 35°C); (b) Thermodynamic signatures for each interaction. […]
# as §1, §2, §3, §4
# [4] = target: T4, p300 CH1 domain (residues 330–420) (UniProt Q09472 330-420); experiment: ITC; competition: CITED2 peptides titrated into the preformed p300/HIF-1α 776–826 complex (1.2–1.6 equivalents of HIF-1α); 40 mM sodium phosphate, pH 7.5, 100 mM NaCl, 1 mM DTT, 35 °C; competitive binding model; apparent; settings: both partners purified
# T4 construct: p300 CH1 domain, residues 330–420; The cleavage of GST is said for the anisotropy control; also called p300 with the GST tag cleaved; source: recombinantly expressed as a fusion protein with GST, GST tag cleaved
# [5] = target: T4, p300 CH1 domain (residues 330–420); experiment: ITC; peptide in the syringe, p300 in the cell (Fig. 4: 5 μM protein, 60 μM ligand); 40 mM sodium phosphate, pH 7.5, 100 mM NaCl, 1 mM DTT, 35 °C; single-site model, fixed 1:1 stoichiometry; settings: both partners purified
# [6] = target: T4, p300 CH1 domain (residues 330–420); experiment: ITC; expressed peptides (GFP tag cleaved) titrated to p300; conditions in Fig. S6 (ESI); fixed 1:1 stoichiometry; settings: both partners purified
# [7] = target: T4, p300 CH1 domain (residues 330–420); experiment: ITC; peptide in the syringe, p300 in the cell (Fig. 4: 5 μM protein, 60 μM ligand); 40 mM sodium phosphate, pH 7.5, 100 mM NaCl, 1 mM DTT, 35 °C; single-site model, fixed 1:1 stoichiometry; settings: both partners purified; remark: listed apart in the source
# [8] = target: T5, p300 CH1 domain (residues 330-420), GST removed with thrombin (human, UniProt Q09472 330-420); experiment: ITC; global fit in SEDPHAT of three titrations (HIF-1α776-826 to p300, CITED2 peptide to p300, CITED2 peptide to preformed p300/HIF-1α776-826) to a model with a ternary CITED2-HIF-1α-p300 complex; 40 mM sodium phosphate, pH 7.5, 100 mM NaCl, 1 mM DTT; 35 °C; settings: both partners purified
# T5 construct: human p300, CH1 domain (zinc finger, TAZ type 1), residues 330-420; Thrombin-cleaved construct (expected m/z 10603.30), used on the Microcal VP ITC with synthetic partners (D1:p17); source: E. coli BL21 pLysS (pGEX-4T-1), glutathione beads, on-column thrombin cleavage, SEC
# [9] = 68% confidence interval in brackets
# [10] = global fit 1 (CITED224-259 and HIF776-826 titrations)
# [11] = global fit 2 (CITED216-269 and HIF776-826 titrations)
# [12] = global fit 3 (CITED2216-248 and HIF776-826 titrations)
# T5 sequence (Q09472 330-420): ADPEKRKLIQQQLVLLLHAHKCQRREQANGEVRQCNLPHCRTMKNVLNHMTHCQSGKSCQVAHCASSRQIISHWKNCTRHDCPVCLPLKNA
# T1 sequence (Q09472 330-420): as above
# T4 sequence (Q09472 330-420): as above
# T2 sequence (Q09472 330-420): as above
# T3 sequence (Q09472 330-420, one chain of several): as the sequence (Q09472 330-420) above
molecule,measurement,setting,value
HIF-1α 776-826 (from UniProt Q16665),Kd,p300 CH1 (Homo sapiens),10 nM
CITED2 216-269 (from UniProt Q99967),Kd,p300 CH1 (Homo sapiens),10 nM
CC[C@H](C)[C@H](NC(=O)[C@@H]1CCCN1C(=O)[C@H](C)NC(=O)[C@H](CC(N)=O)NC(=O)[C@@H](NC(=O)[C@H](CCC(=O)O)NC(=O)[C@H](CS)NC(=O)[C@H](CC(=O)O)NC(=O)[C@H](Cc1ccc(O)cc1)NC(=O)[C@H](CO)NC(=O)[C@@H](NC(=O)[C@H](CC(C)C)NC(=O)[C@H](CCC(N)=O)NC(=O)[C@@H]1CCCN1C(=O)[C@H](CC(C)C)NC(=O)CNC(=O)[C@H](CO)NC(=O)[C@H](CCC(=O)O)NC(=O)[C@H](CC(=O)O)NC(=O)[C@H](CCSC)NC(=O)[C@H](CO)NC(=O)[C@H](CCC(N)=O)NC(=O)CNC(=O)[C@H](CC(C)C)NC(=O)[C@H](CC(C)C)NC(=O)[C@H](CCCNC(=N)N)NC(=O)[C@H](CS)NC(=O)[C@H](C)NC(=O)[C@H](CC(C)C)NC(=O)[C@H](CC(=O)O)NC(=O)[C@H](CO)NC(=O)[C@H](CO)NC(=O)CNC(=O)[C@@H]1CCCN1C(=O)CN)[C@@H](C)O)C(C)C)C(=O)N[C@@H](CCC(N)=O)C(=O)NCC(=O)N[C@@H](CO)C(=O)N[C@@H](CCCNC(=N)N)C(=O)N[C@@H](CC(N)=O)C(=O)N[C@@H](CC(C)C)C(=O)N[C@@H](CC(C)C)C(=O)N[C@@H](CCC(N)=O)C(=O)NCC(=O)N[C@@H](CCC(=O)O)C(=O)N[C@@H](CCC(=O)O)C(=O)N[C@@H](CC(C)C)C(=O)N[C@@H](CC(C)C)C(=O)N[C@@H](CCCNC(=N)N)C(=O)N[C@@H](C)C(=O)N[C@@H](CC(C)C)C(=O)N[C@@H](CC(=O)O)C(=O)N[C@@H](CCC(N)=O)C(=O)N[C@H](C(=O)N[C@@H](CC(N)=O)C(=O)O)C(C)C [HIF-1α776–826],"ΔS, synthetic peptides",[1],−41 cal mol^−1 K^−1
same,"ΔH, synthetic peptides",[1]; [9],-22.9 kcal/mol
same,ΔH,p300; [10],-22.7 kcal/mol
same,ΔS,p300; [10],-40.3 cal mol-1 K-1
same,ΔH,p300; [11],-22.9 kcal/mol
same,ΔS,p300; [11],-41.1 cal mol-1 K-1
same,ΔH,p300; [12],-27.8 kcal/mol
same,ΔS,p300; [12],-57.4 cal mol-1 K-1
same,Kd,"[2]; fixed KD = 26.3 nM for CITED2, treat with caution, small heat change, read-out: KD,app HIF-1α",695 nM
same,"ΔHapp, HIF-1α",[2]; treat with caution,-26.37 kcal/mol
same,"ΔSapp, HIF-1α",[2]; treat with caution,-57.4 cal/mol/K
same,"ΔS, expressed peptides",[3],−39.2 cal mol^−1 K^−1
same,"ΔH, expressed peptides",[3]; [9],-22.2 kcal/mol
"Ac-DEEVLMSLVIEMGLDRIKELPELWLGQNEFDFMTDF-NH2 (peptide, UniProt Q99967 224-259, looked up, source: synthetic peptide (chemical synthesis, see ESI)) [CITED2 224–259, chemically synthesized peptide]","KD,app (competition against the preformed p300/HIF-1α 776–826 complex)",[4],12.2 nM
same,Kd,[5],9.1 nM
same,dH,[5],-12.4 kcal/mol
"CITIF, HIF-1α-CITED2 hybrid sequence, expressed peptide (GFP tag cleaved) (peptide) GPGSDEEVLMSLVIEMGLDRIKELPQLTSYDCEVNAPIQGSRNLLQGEELLRALDQVN",dH,[6],-18.3 kcal/mol
"DEEVLMSLVIEMGLDRIKELPELWL (peptide, UniProt Q99967 224-248, looked up) [CITED2 224–248 (truncated CITED2)]",Kd,[7],10400 nM
"HIF-1α 776–826, expressed peptide (GFP tag cleaved) (four residues (Gly-Pro-Gly-Ser) remaining from the PreScission protease cleavage; Free N-terminus; source: expressed as GFP fusion protein, tag cleaved with PreScission protease) peptide: GPGSSDLACRLLGQSMDESGLPQLTSYDCEVNAPIQGSRNLLQGEELLRALDQVN",Kd,[6],82.4 nM
same,dH,[6],-22.2 kcal/mol
CITED2216-269 (synthetic) (source: synthetic peptide) peptide: Ac-NVIDTDFIDEEVLMSLVIEMGLDRIKELPELWLGQNEFDFMTDFVCKQQPSRVS-NH2,Kd,[8],26.9 nM
"HIF-1α776-826 (synthetic) (cysteine pairing not given here, source: synthetic peptide) peptide: Ac-SDLACRLLGQSMDESGLPQLTSYDCEVNAPIQGSRNLLQGEELLRALDQVN-NH2",Kd,[8],67 nM and 48.8 nM and 52.3 nM
"GPGSSMDESGLPQLTSYDCEVNAPIQGSRNLLQGEELLRALDQVN (four residues (Gly-Pro-Gly-Ser) remaining from the PreScission protease cleavage; Free N-terminus; source: expressed as GFP fusion protein, tag cleaved with PreScission protease) [HIF-1α 786–826, expressed peptide (GFP tag cleaved)]",dH,[6],-32.7 kcal/mol
"CITED2 216–269, chemically synthesized peptide (peptide, UniProt Q99967 216-269, looked up, source: synthetic peptide (chemical synthesis, see ESI)) peptide: Ac-NVIDTDFIDEEVLMSLVIEMGLDRIKELPELWLGQNEFDFMTDFVCKQQPSRVS-NH2","KD,app (competition against the preformed p300/HIF-1α 776–826 complex)",[4],1.1 nM
same,Kd,[5],26.3 nM
same,dH,[5],-13.2 kcal/mol
Ac-DEEVLMSLVIEMGLDRIKELPELWLGQNEFDFMTDF-NH2 (source: synthetic peptide) [CITED2224-259 (synthetic)],Kd,[8],11.6 nM
